Assay results as given in patent publication EP2168984B1 (Abbott GmbH & Co. KG, dated 2012).
Substitutions are numbered along the chain they refer to. Names may count otherwise. Values belong to the binder of their own block, whether it stands above or below them.

Legend:
recombinant human IL-12 [1] = target: T1, recombinant human IL-12 (human, UniProt P29459 23-219; P29460 23-328); assay: cell-based or functional assay
T1 sequence (looked up) 1: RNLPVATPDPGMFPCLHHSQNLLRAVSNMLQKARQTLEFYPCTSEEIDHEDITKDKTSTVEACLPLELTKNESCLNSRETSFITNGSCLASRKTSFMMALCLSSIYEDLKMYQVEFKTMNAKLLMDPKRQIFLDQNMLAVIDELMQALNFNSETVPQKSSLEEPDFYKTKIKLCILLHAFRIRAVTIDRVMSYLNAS
T1 sequence (looked up) 2: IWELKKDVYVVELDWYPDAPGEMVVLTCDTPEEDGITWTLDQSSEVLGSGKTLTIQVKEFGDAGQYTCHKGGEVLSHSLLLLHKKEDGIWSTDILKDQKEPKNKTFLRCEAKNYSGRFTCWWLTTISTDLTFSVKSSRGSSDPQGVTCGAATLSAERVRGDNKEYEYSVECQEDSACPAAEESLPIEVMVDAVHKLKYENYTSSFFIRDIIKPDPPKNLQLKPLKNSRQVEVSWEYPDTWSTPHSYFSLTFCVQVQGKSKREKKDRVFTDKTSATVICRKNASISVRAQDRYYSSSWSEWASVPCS

Cyno IL-12 = target: T2, Cyno IL-12 (cynomolgus monkey); assay: cell-based or functional assay
T2 chain 1: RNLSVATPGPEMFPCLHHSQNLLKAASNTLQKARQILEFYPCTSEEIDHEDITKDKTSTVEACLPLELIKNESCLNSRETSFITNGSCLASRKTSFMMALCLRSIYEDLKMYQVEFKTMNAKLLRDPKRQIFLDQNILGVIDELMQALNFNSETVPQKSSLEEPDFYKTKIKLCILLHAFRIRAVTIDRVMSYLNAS
T2 chain 2: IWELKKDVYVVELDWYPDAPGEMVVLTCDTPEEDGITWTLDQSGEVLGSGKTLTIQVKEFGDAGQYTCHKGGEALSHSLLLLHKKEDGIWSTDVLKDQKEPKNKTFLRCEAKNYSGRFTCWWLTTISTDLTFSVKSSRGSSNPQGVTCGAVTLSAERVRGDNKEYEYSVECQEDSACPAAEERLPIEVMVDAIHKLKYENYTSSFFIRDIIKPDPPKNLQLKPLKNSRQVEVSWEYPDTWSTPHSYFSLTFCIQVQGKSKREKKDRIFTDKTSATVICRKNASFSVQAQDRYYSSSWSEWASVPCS

recombinant human IL-12 [2] = target: T1, recombinant human IL-12; assay: cell-based or functional assay; remark: listed apart in the source
recombinant human IL-12 [3] = target: T3, recombinant human IL-12 (human, UniProt P29459 23-219; P29460 23-328); assay: BIAcore SPR, immobilised IL-12
T3 construct: disulfide-linked p35/p40 heterodimer; also called hIL-12; rhIL-12
T3 sequence (looked up) 1: T1 sequence (looked up) 1
T3 sequence (looked up) 2: T1 sequence (looked up) 2

recombinant human IL-12 [4] = target: T1, recombinant human IL-12; assay: cell-based or functional assay; remark: listed apart in the source
Baboon IL-12 = target: T4, Baboon IL-12 (baboon); assay: cell-based or functional assay
T4 chain 1: T2 chain 1 with F82V, N85K, K110Q, M111I, R125M, K172R
T4 chain 2: T2 chain 2 with V230A

Dog IL-12 = target: T5, Dog IL-12 (dog, UniProt Q28267 26-222; Q28268 23-329); assay: cell-based or functional assay
T5 sequence (looked up) 1: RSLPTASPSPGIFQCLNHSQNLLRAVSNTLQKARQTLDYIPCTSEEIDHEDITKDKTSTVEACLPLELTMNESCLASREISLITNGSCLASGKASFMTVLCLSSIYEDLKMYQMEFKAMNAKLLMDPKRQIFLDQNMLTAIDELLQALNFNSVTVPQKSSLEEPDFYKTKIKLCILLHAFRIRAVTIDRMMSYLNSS
T5 sequence (looked up) 2: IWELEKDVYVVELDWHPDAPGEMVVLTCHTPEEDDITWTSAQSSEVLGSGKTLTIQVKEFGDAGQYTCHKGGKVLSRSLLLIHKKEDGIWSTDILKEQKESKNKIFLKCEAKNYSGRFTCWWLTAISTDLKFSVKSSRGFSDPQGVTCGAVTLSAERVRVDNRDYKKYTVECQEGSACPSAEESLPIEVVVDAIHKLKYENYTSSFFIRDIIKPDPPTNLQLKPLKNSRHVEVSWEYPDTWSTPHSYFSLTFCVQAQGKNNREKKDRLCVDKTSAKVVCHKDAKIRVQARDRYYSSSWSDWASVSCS

Rhesus IL-12 = target: T6, Rhesus IL-12 (rhesus monkey, UniProt P48091 23-219; P48095 23-328); assay: cell-based or functional assay
T6 sequence (looked up) 1: T2 chain 1
T6 sequence (looked up) 2: T2 chain 2

koff (recombinant human IL-12 [3]): 0.344 s⁻¹
B3: 177-H10 (scFv, V domains shown)
VH: QVQLVQSGGGVVQPGRSLRLSCAASGFTFSSYGMHWVRQAPGKGLEWVAFIRYDGSNKYYADSVKGRFTISRDNSKNTLYLQMKSLRAEDTAVYYCKTHGSHDNWGQGTMVTVSS
VL: SYVLTQPPSVSGTPGQRVTISCSGGRSNIGSNTVKWYQQLPGTAPKLLIYGNDQRPSGVPDRFSGSKSGTSASLAITGVQAEDEADYYCQSYDRGTHPTMYFGTGTKVTVL

PHA blast Assay IC50 (recombinant human IL-12 [4]): 0.0058 nM
IC50 (M), species cross reactivity bioassay (Baboon IL-12): 1.5e-11 M
IC50 (M), species cross reactivity bioassay (Dog IL-12): 3.5e-10 M
IC50 (M), species cross reactivity bioassay (Rhesus IL-12): 1e-11 M
IC50 (M), species cross reactivity bioassay (recombinant human IL-12 [1]): 5e-12 M
IC50 (M), species cross reactivity bioassay (Cyno IL-12): 1e-11 M
B4: J695 (Y61-L94Y- L50Y IgG*) (antibody, V domains shown)
VH: B3 VH with Q6E, K84N
VL: QSVLTQPPSVSGAPGQRVTISCSGSRSNIGSNTVKWYQQLPGTAPKLLIYYNDQRPSGVPDRFSGSKSGTSASLAITGLQAEDEADYYCQSYDRYTHPALLFGTGTKVTVLG

Second part, the binder before the results:

B1: Y61 IgG (antibody, V domains shown)
VH: B3 VH
VL: B4 VL with Q1S, S2Y, A13T, S25G, N28W, Y51G, L79V, Y95G
IC50 (M), species cross reactivity bioassay (recombinant human IL-12 [1]): 1.7e-10 M
IC50 (M), species cross reactivity bioassay (Cyno IL-12): 2.2e-10 M

B2: Y139 (scFv, V domains shown)
VH: B3 VH
VL: B3 VL with T96S, T99A, M100L, Y101T
IFN gamma IC50 (recombinant human IL-12 [2]): 0.16 nM
